The values below are quoted from earlier work in US5608039A, “Single chain B3 antibody fusion proteins and their uses” (The United States of America as represented by the …, priority 1994, dated 1997).

For the data set the following is noted: in vivo.

In the case of PE, the toxicity result was “highly toxic compounds that typically bring about death through liver toxicity”.
